Laboratory results reported in patent US20080139456A1, “Macrocyclic Sh2 Domain Binding Inhibitors” (priority 2005, published 2008).
Where two headings read alike, the source gives them in different places.

Assays:
Grb2 SH2 domain protein = molecular target: T1, Grb2 SH2 domain protein (Homo sapiens, UniProt P62993); assay: Biosensor (Biacore S51 surface plasmon resonance) direct binding to chip-bound Grb2 SH2 domain protein; conditions: binding affinity to Grb2 SH2 domain protein, complex binding kinetics
T1 construct: made in house
Experimental: Biosensor Analysis: Binding experiments were performed on a Biacore S51 instrument (Biacore Inc., Piscataway N.J.). All Biotinylated Grb2 SH2 domain proteins (b-Grb2) were expressed and purified (Protein Expression Laboratory and The Protein Chemistry Laboratory, SAIC—Frederick). The b-Grb2 was immobilized onto carboxymethyl 5′ dextran surface (CM5 sensor chip, Biacore Inc.) by amine coupling. The lyophilized b-Grb2 was reconstituted in fifty percent DMSO in H2O to make a stock solution of 1 mg/mL and stored at −80° C. A 1: 12.5 dilution of b-Grb2 was used for immobilization, by dilution in acetate buffer pH-5.0, with 5% DMSO. 1×PBS (phosphate buffered saline, pH 7.4) was used as the running buffer.
An immobilization wizard was used to optimize the immobilization target. For b-Grb2, 2500-5000 resonance units (RU) of protein were captured on the CM5 sensor chip. Small molecules were serially diluted in running buffer to the concentrations (1.25 nM-1500 nM) as indicated in each sensorgram and injected at 25° C. at a flow rate of 30 μL/min for 2 minutes. Varying concentrations of small molecules were injected in increasing concentrations, and every injection was performed in duplicate within each experiment. […]

[1] = molecular target: Biotinylated Grb2 SH2 domain protein (UniProt P62993); assay: SPR (Biacore S51), steady state, compound injected over immobilized b-Grb2 SH2 domain
Chain of Biotinylated Grb2 SH2 domain protein (P62993 60-152 limits assumed): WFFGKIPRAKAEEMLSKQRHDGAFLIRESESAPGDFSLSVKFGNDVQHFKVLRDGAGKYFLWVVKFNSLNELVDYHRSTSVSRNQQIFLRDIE

T1 sequence (P62993 60-152 limits assumed): as above

Row | Kd (Grb2 SH2 domain protein; first of two Kd values, read-out: Kd (complex binding kinetics, first value)) | Kd (Grb2 SH2 domain protein; second of two Kd values, read-out: Kd (complex binding kinetics, second value)) | Kd [1] | Molecule
1 | 9.3 ± 0.1 nM | 21300 ± 500 nM | – | NC(=O)CC1NC(=O)C2(CCCCC2)NC(=O)[C@@H](CC(=O)O)[C@@H](c2ccc(CP(=O)(O)O)cc2)/C=C/CCC2(CCCCC2)CNC1=O (some centres unmarked) [compound 24]
2 | – | – | 54.9 nM | Cyclo{[(2R,3R)-3-(4-dihydroxyphosphonomethyl)phenyl-2-(hydroxycarbonylmethyl)pent-4-enyl]-Ac6c-L-Asn-D-AllylGly}-(1-naphthyl)methyl amide (4) (peptide)
3 | – | – | 22.7 nM | Cyclo{[(2R,3R)-3-(4-dihydroxyphosphonomethyl)phenyl-2-(hydroxycarbonylmethyl)pent-4-enyl]-Ac6c-L-Asn-L-AllylGly}-(1-naphthyl)methyl amide (3) (peptide)
4 | – | – | 5610 nM | [(2R)-3-(4-Dihydroxyphosphonomethyl)phenyl-2-(hydroxylcarbonylmethyl)propionyl]-Ac6c-L-Asn-Gly-(1-naphthyl)methyl amide (2) (peptide)
